Laboratory results taken from article PMC9808001.

Legend:
Assay in all cases: BLI; 25 nM WDR44 (334–389) wild type or mutant immobilised on anti-penta-His tips, […] nM Rab11; responses normalised to the mean wildtype response; 30 °C; 20 mM Hepes pH 7.5, 150 mM NaCl, 1 mM MgCl2, bovine serum albumin, 0.002% Tween-20
[1] = molecular target: Strep-His WDR44 (334–389) I359A (human) (UniProt Q5JSH3)
[2] = molecular target: Strep-His WDR44 (334–389) L354A (human) (UniProt Q5JSH3)
[3] = molecular target: Strep-His WDR44 (334–389) K360E (human) (UniProt Q5JSH3)
[4] = molecular target: Strep-His WDR44 (334–389) L370A (human) (UniProt Q5JSH3)
Chain of Strep-His WDR44 (334–389) L370A (human) (Q5JSH3 334-389 L370A): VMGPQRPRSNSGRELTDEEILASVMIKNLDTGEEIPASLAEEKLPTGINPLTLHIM

Chain of Strep-His WDR44 (334–389) L354A (human) (Q5JSH3 334-389 L354A): as the sequence (Q5JSH3 334-389 L370A) above, with L21A, A37L counted along it
Chain of Strep-His WDR44 (334–389) K360E (human) (Q5JSH3 334-389 K360E): as the sequence (Q5JSH3 334-389 L370A) above, with K27E, A37L counted along it
Chain of Strep-His WDR44 (334–389) I359A (human) (Q5JSH3 334-389 I359A): as the sequence (Q5JSH3 334-389 L370A) above, with I26A, A37L counted along it

- percent decrease in complex formation against wild type [1]: > 95%
- percent decrease in complex formation against wild type [2]: > 95%
- percent decrease in complex formation against wild type [3]: > 95%
- percent decrease in complex formation against wild type [4]: > 95%
Substance: Rab11a (GTPγS-loaded) (from UniProt P62491 1-216) (natural protein)
